B1: Construct 1, JB1 (other)
chain: MGKDYYQTLGLARGASDEEIKRAYRRQALRYHPDKNKEPGAEEKFKEIAEAYDVLSDPRKREIFDRYGEEGLKGSDIAAALESRDYKDDDDK
B2: Construct 2, JB1-QBP1 (designed binder)
chain: MGKDYYQTLGLARGASDEEIKRAYRRQALRYHPDKNKEPGAEEKFKEIAEAYDVLSDPRKREIFDRYGEEGLKGSDIGGGGSGGGGSGGGGSGGGGSAAASNWKWWPGIFDGLE
B3: Construct 3, QBP1-JB1 (designed binder)
chain: MGKPIPNPLLGLDSTGTGSSNWKWWPGIFDEFMGKDYYQTLGLARGASDEEIKRAYRRQALRYHPDKNKEPGAEEKFKEIAEAYDVLSDPRKREIFDRYGEEGLKGSDIAAALE
B4: Construct 5, JB1-3XQBP1 (designed binder)
chain: MGKDYYQTLGLARGASDEEIKRAYRRQALRYHPDKNKEPGAEEKFKEIAEAYDVLSDPRKREIFDRYGEEGLKGSGGGGSGGGGSGGGGSGGGGSGSSNWKWWPGIAAASNWKWWPGILESNWKWWPGIFD
B5: Construct 6, QBP1-JB1-QBP1 (designed binder)
chain: MGKPIPNPLLGLDSTGTGSSNWKWWPGIFDEFMGKDYYQTLGLARGASDEEIKRAYRRQALRYHPDKNKEPGAEEKFKEIAEAYDVLSDPRKREIFDRYGEEGLKGSDIGGGGSGGGGSGGGGSGGGGSAAASNWKWWPGIFDGLE
B6: Construct 7, QBP1-JB1-2XQBP1 (designed binder)
chain: MGKPIPNPLLGLDSTGTGSSNWKWWPGIFDEFMGKDYYQTLGLARGASDEEIKRAYRRQALRYHPDKNKEPGAEEKFKEIAEAYDVLSDPRKREIFDRYGEEGLKGSDIGGGGSGGGGSGGGGSGGGGSAAASNWKWWPGIFDGLESNWKWWPGIFD
B7: Construct 35, JB1-QBP1-QBP1 (2) (designed binder)
chain: MGKDYYQTLGLARGASDEEIKRAYRRQALRYHPDKNKEPGAEEKFKEIAEAYDVLSDPRKREIFDRYGEEGLKGSSNWKWWPGIFDEAAAKSNWKWWPGIFDLE
B8: Construct 36, JB1-QBP1-QBP1 (3) (designed binder)
chain: MGKDYYQTLGLARGASDEEIKRAYRRQALRYHPDKNKEPGAEEKFKEIAEAYDVLSDPRKREIFDRYGEEGLKGSSNWKWWPGIFDGGGGSSNWKWWPGIFDLE
B9: Construct 37, JB1-QBP1-QBP1 (4) (designed binder)
chain: MGKDYYQTLGLARGASDEEIKRAYRRQALRYHPDKNKEPGAEEKFKEIAEAYDVLSDPRKREIFDRYGEEGLKGSGGGGSSNWKWWPGIFDEAAAKSNWKWWPGIFDLE
B10: Construct 38, JB1-QBP1-QBP1 (5) (designed binder)
chain: MGKDYYQTLGLARGASDEEIKRAYRRQALRYHPDKNKEPGAEEKFKEIAEAYDVLSDPRKREIFDRYGEEGLKGSGGGGSSNWKWWPGIFDGGGGSSNWKWWPGIFDLE
B11: Construct 39, JB1-QBP1-QBP1 (6) (designed binder)
chain: MGKDYYQTLGLARGASDEEIKRAYRRQALRYHPDKNKEPGAEEKFKEIAEAYDVLSDPRKREIFDRYGEEGLKGSEAAAKSNWKWWPGIFDEAAAKSNWKWWPGIFDLE
B12: Construct 40, JB1-QBP1-QBP1 (7) (designed binder)
chain: MGKDYYQTLGLARGASDEEIKRAYRRQALRYHPDKNKEPGAEEKFKEIAEAYDVLSDPRKREIFDRYGEEGLKGSEAAAKSNWKWWPGIFDGGGGSSNWKWWPGIFDLE
B13: Construct 41, JB1-QBP1-QBP1 (8) (designed binder)
chain: MGKDYYQTLGLARGASDEEIKRAYRRQALRYHPDKNKEPGAEEKFKEIAEAYDVLSDPRKREIFDRYGEEGLKGSEAAAKSNWKWWPGIFDEAAAKSNWKWWPGIFD
B14: Construct 42, JB1-QBP1-QBP1 (9) (designed binder)
chain: MGKDYYQTLGLARGASDEEIKRAYRRQALRYHPDKNKEPGAEEKFKEIAEAYDVLSDPRKREIFDRYGEEGLKGSEAAAKSNWKWWPGIFDGGGGSSNWKWWPGIFD
B15: Construct 43, JB1-QBP1-QBP1 (10) (designed binder)
chain: MGKDYYQTLGLARGASDEEIKRAYRRQALRYHPDKNKEPGAEEKFKEIAEAYDVLSDPRKREIFDRYGEEGLKGSSNWKWWPGIFDGGGGSGGGGSSNWKWWPGIFDLE
B16: Construct 44, JB1-QBP1-QBP1 (11) (designed binder)
chain: MGKDYYQTLGLARGASDEEIKRAYRRQALRYHPDKNKEPGAEEKFKEIAEAYDVLSDPRKREIFDRYGEEGLKGSSNWKWWPGIFDEAAAKEAAAKSNWKWWPGIFDLE
B17: Construct 45, JB1-QBP1-QBP1 (12) (designed binder)
chain: MGKDYYQTLGLARGASDEEIKRAYRRQALRYHPDKNKEPGAEEKFKEIAEAYDVLSDPRKREIFDRYGEEGLKGSGGGGSSNWKWWPGIFDGGGGSGGGGSSNWKWWPGIFDLE
B18: Construct 46, JB1-QBP1-QBP1 (13) (designed binder)
chain: MGKDYYQTLGLARGASDEEIKRAYRRQALRYHPDKNKEPGAEEKFKEIAEAYDVLSDPRKREIFDRYGEEGLKGSGGGGSSNWKWWPGIFDEAAAKEAAAKSNWKWWPGIFDLE
B19: Construct 47, JB1-QBP1-QBP1 (14) (designed binder)
chain: MGKDYYQTLGLARGASDEEIKRAYRRQALRYHPDKNKEPGAEEKFKEIAEAYDVLSDPRKREIFDRYGEEGLKGSEAAAKSNWKWWPGIFDGGGGSGGGGSSNWKWWPGIFDLE
B20: Construct 48, JB1-QBP1-QBP1 (15) (designed binder)
chain: MGKDYYQTLGLARGASDEEIKRAYRRQALRYHPDKNKEPGAEEKFKEIAEAYDVLSDPRKREIFDRYGEEGLKGSEAAAKSNWKWWPGIFDEAAAKEAAAKSNWKWWPGIFDLE
B21: Construct 49, JB1-QBP1-QBP1 (16) (designed binder)
chain: MGKDYYQTLGLARGASDEEIKRAYRRQALRYHPDKNKEPGAEEKFKEIAEAYDVLSDPRKREIFDRYGEEGLKGSGGGGSGGGGSGGGGSGGGGSAAASNWKWWPGIFDLEGGGGSSRAAASNWKWWPGIFDLE
B22: Construct 50, JB1-QBP1-QBP1 (17) (designed binder)
chain: MGKDYYQTLGLARGASDEEIKRAYRRQALRYHPDKNKEPGAEEKFKEIAEAYDVLSDPRKREIFDRYGEEGLKGSGGGGSGGGGSGGGGSGGGGSAAASNWKWWPGIFDLEEAAAKSRAAASNWKWWPGIFDLE
B23: Construct 51, JB1-QBP1-QBP1 (18) (designed binder)
chain: MGKDYYQTLGLARGASDEEIKRAYRRQALRYHPDKNKEPGAEEKFKEIAEAYDVLSDPRKREIFDRYGEEGLKGSEAAAKSNWKWWPGIFDLEGGGGSSNWKWWPGIFDLE
B24: Construct 52, JB1-QBP1-QBP1 (19) (designed binder)
chain: MGKDYYQTLGLARGASDEEIKRAYRRQALRYHPDKNKEPGAEEKFKEIAEAYDVLSDPRKREIFDRYGEEGLKGSGGGGSSNWKWWPGIFDLEGGGGSSNWKWWPGIFDLE
B25: Construct 53, Flag-QBP1-JB1-QBP1-Flag (designed binder)
chain: MDYKDDDDKGGTGSSNWKWWPGIFDEFMGKDYYQTLGLARGASDEEIKRAYRRQALRYHPDKNKEPGAEEKFKEIAEAYDVLSDPRKREIFDRYGEEGLKGSGGGGSGGGGSGGGGSGGGGSAAASNWKWWPGIFDLESRGDYKDDDDK
B26: Construct 54, QBP1-JB1-QBP1 (1) (designed binder)
chain: MSNWKWWPGIFDGKDYYQTLGLARGASDEEIKRAYRRQALRYHPDKNKEPGAEEKFKEIAEAYDVLSDPRKREIFDRYGEEGLKGSSNWKWWPGIFDGDYKDDDDK
B27: Construct 55, QBP1-JB1-QBP1 (2) (designed binder)
chain: MSNWKWWPGIFDLEGKDYYQTLGLARGASDEEIKRAYRRQALRYHPDKNKEPGAEEKFKEIAEAYDVLSDPRKREIFDRYGEEGLKGSGGGSSNWKWWPGIFDLE
B28: Construct 56, JB1-JB1-QBP1 (designed binder)
chain: MGKDYYQTLGLARGASDEEIKRAYRRQALRYHPDKNKEPGAEEKFKEIAEAYDVLSDPRKREIFDRYGEEGLKGSGSEFMGKDYYQTLGLARGASDEEIKRAYRRQALRYHPDKNKEPGAEEKFKEIAEAYDVLSDPRKREIFDRYGEEGLKGSGGGGSGGGGSGGGGSGGGGSAAASNWKWWPGIFDLESRGDYKDDDDK
B29: Construct 57, JB1-QBP1-JB1-QBP1 (designed binder)
chain: MGKDYYQTLGLARGASDEEIKRAYRRQALRYHPDKNKEPGAEEKFKEIAEAYDVLSDPRKREIFDRYGEEGLKGSGSSNWKWWPGIFDEFMGKDYYQTLGLARGASDEEIKRAYRRQALRYHPDKNKEPGAEEKFKEIAEAYDVLSDPRKREIFDRYGEEGLKGSGGGGSGGGGSGGGGSGGGGSAAASNWKWWPGIFDLESRGDYKDDDDK
B30: Construct 8, JB1(P33Q)-2XQBP1 (designed binder)
chain: MGKDYYQTLGLARGASDEEIKRAYRRQALRYHQDKNKEPGAEEKFKEIAEAYDVLSDPRKREIFDRYGEEGLKGSDIGGGGSGGGGSGGGGSGGGGSAAASNWKWWPGIFDGLESNWKWWPGIFD
B31: Construct 9, JB1(20-31)-2XQBP1 (designed binder)
chain: MGTGSEFIKRAYRRQALRYDIGGGGSGGGGSGGGGSGGGGSAAASNWKWWPGIFDGLESNWKWWPGIFD
B32: Construct 10, JB1(19-43)-2XQBP1 (designed binder)
chain: MGTGSEFEIKRAYRRQALRYHPDKNKEPGAEEDIGGGGSGGGGSGGGGSGGGGSAAASNWKWWPGIFDGLESNWKWWPGIFD

target: GFP-HTTQ74 reporter construct; assay: cell-based or functional assay

Going from B1 to B2, the “% Aggregation (relative to Q74 alone), filter trap assay” value (shortened to “% Aggregation (relative to Q74 alone)”) falls from 127% to 75.9%.

First: B3
Second: B4
The “% Aggregation (relative to Q74 alone)” value of the first is higher: 67.5% for the first, 41.1% for the second.

Going from B5 to B6, the “% Aggregation (relative to Q74 alone)” value rises from 5.62% to 23%.

target: GFP-HTTQ74 reporter construct; assay: cell-based or functional assay; remark: another data set of the same source

Compared with B7, B8 is lower in “Reduction of Aggregation (%), filter trap assay” value (“Reduction of Aggregation (%)” for short): 97.9% for the first, 95.7% for the second.

Compared with B9, B10 is lower in “Reduction of Aggregation (%)” value: 97% for the first, 96.9% for the second.

Going from B11 to B12, the “Reduction of Aggregation (%)” value falls from 98.1% to 96%.

Going from B13 to B14, the “Reduction of Aggregation (%)” value falls from 91.1% to 87%.

Compared with B15, B16 is higher in “Reduction of Aggregation (%)” value: 99.5% for the first, 99.6% for the second.

Compared with B17, B18 is higher in “Reduction of Aggregation (%)” value: 91.1% for the first, 100% for the second.

Compared with B19, B20 is higher in “Reduction of Aggregation (%)” value: 99.7% for the first, 100% for the second.

First: B21
Second: B22
The “Reduction of Aggregation (%)” value of the first is lower: 82.5% for the first, 90.9% for the second.

Going from B23 to B24, the “Reduction of Aggregation (%)” value rises from 96.5% to 96.9%.

First: B25
Second: B26
The “Reduction of Aggregation (%)” value of the first is higher: 79.9% for the first, 0% for the second.

Compared with B27, B28 is higher in “Reduction of Aggregation (%)” value: 9.45% for the first, 68.5% for the second.

With B29 the “Reduction of Aggregation (%)” value was 94.1%.

target: GFP-HTTQ74 reporter construct; assay: cell-based or functional assay; remark: another data set of the same source

Compared with B30, B31 is lower in “% Aggregation (relative to Q74 alone)” value: 93% for the first, 91% for the second.

B32 was tested, and the “% Aggregation (relative to Q74 alone)” value was 91%.

Source: patent US20230226223A1 (SOLA BIOSCIENCES, published 2023)
